This is an account of results in PMC10639050, “ZNF432 stimulates PARylation and inhibits DNA resection to balance PARPi sensitivity and resistance”.

Data set [1] has as its target ZNF432 full-length (Homo sapiens, UniProt O94892 1-652). The data set can be described thus: EMSA; no fixation, 1 mM CaCl2; 100 nM DNA stated, protein 1-6 nM; 25 mM MOPS pH 7.0, 60 mM KCl, 0.2% Tween, 2 mM DTT, CaCl2 (40 nM as printed with glutaraldehyde fixation; 1 mM without fixation for Kd), 37 C 30 min; 8% TBE acr. As to conditions: protein: recombinant; tags: C-terminal 10xHis (GST removed with PreScission); label: 32P (gamma-32P); single strand. In general terms: A gel shift assay detects complexes by their altered migration in electrophoresis.

Data set [2] addresses ZNF432 KRAB domain (Homo sapiens, UniProt O94892 1-205). The data set can be described thus: EMSA; negligible binding; 1-6 nM protein, no fixation; 25 mM MOPS pH 7.0, 60 mM KCl, 0.2% Tween, 2 mM DTT, CaCl2 (40 nM as printed with glutaraldehyde fixation; 1 mM without fixation for Kd), 37 C 30 min; 8% TBE acr. As to conditions: protein: recombinant; tags: His (GST removed with PreScission); label: 32P (gamma-32P); single strand.

Sequence of ZNF432 full-length (O94892 whole entry): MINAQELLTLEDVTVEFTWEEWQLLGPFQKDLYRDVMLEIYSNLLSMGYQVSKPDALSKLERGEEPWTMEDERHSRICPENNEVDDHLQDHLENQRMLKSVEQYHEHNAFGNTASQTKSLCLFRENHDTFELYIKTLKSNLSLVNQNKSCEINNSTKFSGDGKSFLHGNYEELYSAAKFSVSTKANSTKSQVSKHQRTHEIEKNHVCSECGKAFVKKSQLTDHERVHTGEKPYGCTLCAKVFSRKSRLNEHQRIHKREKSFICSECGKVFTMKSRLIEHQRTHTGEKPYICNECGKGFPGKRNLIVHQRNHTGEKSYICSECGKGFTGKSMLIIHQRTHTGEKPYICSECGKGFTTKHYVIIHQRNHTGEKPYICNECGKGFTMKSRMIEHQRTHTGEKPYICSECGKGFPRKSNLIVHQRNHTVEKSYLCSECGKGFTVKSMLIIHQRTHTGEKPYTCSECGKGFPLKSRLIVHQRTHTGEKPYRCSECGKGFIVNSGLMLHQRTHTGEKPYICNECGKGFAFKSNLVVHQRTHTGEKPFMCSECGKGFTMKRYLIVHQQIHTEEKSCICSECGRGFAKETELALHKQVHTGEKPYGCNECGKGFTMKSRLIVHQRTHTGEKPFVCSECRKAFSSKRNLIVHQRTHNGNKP
Sequence of ZNF432 KRAB domain (O94892 1-205): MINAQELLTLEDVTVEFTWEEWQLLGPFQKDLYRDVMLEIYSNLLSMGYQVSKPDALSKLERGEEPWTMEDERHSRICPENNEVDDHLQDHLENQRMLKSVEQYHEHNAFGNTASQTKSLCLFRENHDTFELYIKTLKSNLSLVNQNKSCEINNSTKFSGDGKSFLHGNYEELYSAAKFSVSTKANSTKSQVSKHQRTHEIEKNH

B1: Single-stranded DNA (ssDNA)
DNA: GGGCGAATTGGGCCCGACGTCGCATGCTCCTCTAGACTCGAGGAATTCGGTACCCCGGGTTCGAAATCGATAAGCTTACAGTCTCCATTTAAAGGACAAG
In the case of B1, the Kd (as a rule, the constant that tells how readily two partners part at equilibrium) in data set [1] stood at 5.41 nM. Besides, the binding result in data set [2] is “no binding”.
